Data: US20020001840A1

Target: purified αvβ3 integrin (UniProt P06756)
Assay: cell-based or functional assay

Chain of purified αvβ3 integrin (P06756 31-1048, form in doubt, chain 1 of 2): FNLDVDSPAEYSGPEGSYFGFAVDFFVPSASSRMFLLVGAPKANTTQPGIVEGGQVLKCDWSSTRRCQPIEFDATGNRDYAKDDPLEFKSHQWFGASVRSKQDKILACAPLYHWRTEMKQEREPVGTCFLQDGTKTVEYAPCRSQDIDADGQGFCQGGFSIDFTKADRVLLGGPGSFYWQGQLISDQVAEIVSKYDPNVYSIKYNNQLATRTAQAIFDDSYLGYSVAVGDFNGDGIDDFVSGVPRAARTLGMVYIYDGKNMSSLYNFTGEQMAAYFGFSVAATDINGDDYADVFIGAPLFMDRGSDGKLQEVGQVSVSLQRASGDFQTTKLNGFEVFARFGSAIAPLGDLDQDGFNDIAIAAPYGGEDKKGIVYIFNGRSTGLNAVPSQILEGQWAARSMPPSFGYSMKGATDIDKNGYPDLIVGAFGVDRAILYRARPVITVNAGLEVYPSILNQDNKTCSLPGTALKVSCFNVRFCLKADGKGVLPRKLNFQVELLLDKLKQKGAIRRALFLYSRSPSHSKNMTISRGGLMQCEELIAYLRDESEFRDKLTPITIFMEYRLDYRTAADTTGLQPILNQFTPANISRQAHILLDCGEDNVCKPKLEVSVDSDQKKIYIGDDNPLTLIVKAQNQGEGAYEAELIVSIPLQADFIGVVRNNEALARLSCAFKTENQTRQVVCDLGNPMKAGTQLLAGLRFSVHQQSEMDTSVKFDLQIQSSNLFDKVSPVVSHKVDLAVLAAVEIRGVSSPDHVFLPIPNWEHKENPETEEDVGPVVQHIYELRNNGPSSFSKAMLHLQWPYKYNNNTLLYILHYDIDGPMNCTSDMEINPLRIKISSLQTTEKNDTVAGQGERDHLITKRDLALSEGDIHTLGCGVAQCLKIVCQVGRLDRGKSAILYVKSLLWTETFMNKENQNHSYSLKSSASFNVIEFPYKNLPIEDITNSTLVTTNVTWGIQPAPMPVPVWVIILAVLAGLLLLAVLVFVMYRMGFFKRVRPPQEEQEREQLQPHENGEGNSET
Chain of purified αvβ3 integrin (P05106 27-788, form in doubt, chain 2 of 2, further chain): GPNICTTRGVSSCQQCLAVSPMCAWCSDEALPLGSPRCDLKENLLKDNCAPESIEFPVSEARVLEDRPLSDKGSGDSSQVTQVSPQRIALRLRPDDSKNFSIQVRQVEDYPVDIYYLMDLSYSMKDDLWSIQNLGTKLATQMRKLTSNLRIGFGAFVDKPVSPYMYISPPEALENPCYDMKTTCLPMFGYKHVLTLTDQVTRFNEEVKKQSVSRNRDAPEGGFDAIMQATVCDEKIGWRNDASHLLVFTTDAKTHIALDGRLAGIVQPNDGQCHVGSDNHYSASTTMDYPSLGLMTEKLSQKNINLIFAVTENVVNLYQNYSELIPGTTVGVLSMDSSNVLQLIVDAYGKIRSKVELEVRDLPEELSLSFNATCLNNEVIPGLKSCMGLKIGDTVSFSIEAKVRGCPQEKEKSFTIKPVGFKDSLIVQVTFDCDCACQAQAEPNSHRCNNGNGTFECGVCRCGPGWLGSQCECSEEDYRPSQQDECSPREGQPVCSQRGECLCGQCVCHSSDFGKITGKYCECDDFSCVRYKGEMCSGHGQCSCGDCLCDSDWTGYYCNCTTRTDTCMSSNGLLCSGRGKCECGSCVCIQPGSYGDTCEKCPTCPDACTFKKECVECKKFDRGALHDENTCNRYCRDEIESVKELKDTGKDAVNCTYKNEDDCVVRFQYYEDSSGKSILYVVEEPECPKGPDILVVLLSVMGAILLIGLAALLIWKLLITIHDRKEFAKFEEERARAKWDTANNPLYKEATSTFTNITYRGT

For “mutADAM 23 disintegrin-like domain (E466A) expressed as a fusion protein with GST (from UniProt O75077 498-588)”, the cell adhesion promoting effect, SH-Sy5y neuroblastoma cells was 40%.
